The results in this text go back to article PMC10781821, “Novel recombinant aminoacylase from Paraburkholderia monticola capable of N-acyl-amino acid synthesis” (Applied Microbiology and Biotechnology, 2024).

The term Km denotes the concentration of substrate that gives half-maximal velocity.

Substrate in data set [1]: CCCCCCCCCCCC(=O)N[C@@H](Cc1ccccc1)C(=O)O
Kind of data set: ninhydrin assay of released amino acid, initial rates. The format is biochemical, Paraburkholderia monticola. Conditions: hydrolysis, 100 mM Na-borate pH 9.0, Zn2+ (50 µM), 30 °C in Results (Methods print 50 °C).

Substrate in data set [2]: CCCCCCCCCCCC(=O)N[C@@H](C)C(=O)O
The description is as above. Conditions: hydrolysis, 100 mM Na-borate pH 9.0, Zn2+ (50 µM), 30 °C in Results (Methods print 50 °C). Format: biochemical, Paraburkholderia monticola.

B1: PmAcy (N-terminally StrepII-tagged aminoacylase) (Paraburkholderia monticola) (protein)
chain: MLSLVLPGLSQAQSTLPPAPPAKPVLFTNFRLFDGKSMTLRDGLYMVVEGNSISQLGQGQPASVEGKTLVDCGGKVMMPGLIDMHWHALLAALPIQVILQSDIAFVHLAASAEAERTLLRGFTTIRDAGGPSFALKQAIDSGMISGPRIYPSGAMITTTGGHGDFRPLTDLPRTSSQVTQGERDGGFAIADTEDEMRVRVREQFIQGATQIKLVGSGGVSTPRSPLDMLTFTEKQLRAAVETAADWGTYVLSHAYTPEAVQRSVAAGAQCIEHGHLMDDKTAALMAKNGTWLSTQPFISEEDVGPLAPQSREKFLEVVAGTDNAFRLARKHGIKVAFGTDLLFSQAIATRQGTMLTHMKRWYSPAEALGMATGTNGQLLALTGKRNPYPRRLGVLEEGAYADLLLVDGNPLENLDLIANPEQNLRIVMKDGKFYKNTLKA
notes: full-length codon-optimised gene, N-terminal StrepII-tag with serine-glycine linker kept; E. coli BL21 (DE3) pGro7 (GroEL/S)
Take B1: the Michaelis constant (Km) in data set [1] turned out to be 0.21 mM; in data set [2], 1.95 mM.
